A word on the Kd: it is the concentration at which binding is half-saturated.

Data on 1 molecule can be found in patent publication US20150291952, “RNA APTAMER ISOLATION VIA DUAL-CYCLE (RAPID) SELECTION” (CORNELL UNIVERSITY, published 2015).

Data set [1] deals with T1, CHK2 (UniProt O96017 O96017:1-543). Description: EMSA; F-EMSA, Hill fit; 25 mM Tris pH 8.0, 10 mM NaCl, 25 mM KCl, 5 mM MgCl2, 10 ug/ml yeast tRNA, room temp; binding to contaminant not ruled out. The following applies: tags: hexahistidine; expressed in E. coli BL21(DE3)-RIPL, Ni-NTA, ~90-95% pure; label: 3'-fluorescein (fluorescein 5-thiosemicarbazide). Here is the method:
(§1) The RNA samples were 3′-end labelled with fluorescein 5-thiosemicarbazide (Invitrogen) as described previously (Pagano et al. 2007). 50 μL binding reactions were prepared with 2 nM fluorescently-labelled RNA and decreasing amounts of protein (2000 to 0 nM) in binding buffer containing 0.01% IGEPAL CA630, 10 μg/ml yeast tRNA, and 3 U of SUPERase•In RNase Inhibitor. Reactions were prepared in black 96-well half area microplates (Corning) and incubated at room temperature for 2 hours. The plates were scanned on a Synergy H1 microplate reader (BioTek) using the Ex: 485/20 Em: 528/20 filter set to determine the Fluorescence Polarization (FP). The polarization “P” is determined from the total parallel and perpendicular polarized fluorescence according to:
(§2) In order to confirm that the two methods had independently enriched the same aptamer, we tested the unambiguous top-ranked SELEX/RAPID candidate for CHK2 binding, hereafter referred to as C6M1. […] The calculated fraction bound curve for the gel shift is also shown in FIG. 6B as the solid line (left axis). […] In order to ensure that the observed binding was not a gel artefact, we also performed a Fluorescence Polarization (FP) assay. […]
A general note: Mobility shift assays separate free from complexed probe on a gel.

Data set [2] addresses T1, CHK2. Description: FP; same samples as F-EMSA, Hill fit; 5 mM MgCl2, yeast tRNA, room temp. The following applies: tags: hexahistidine; expressed in E. coli BL21(DE3)-RIPL, Ni-NTA, ~90-95% pure; label: 3'-fluorescein (fluorescein 5-thiosemicarbazide). Here is the method: as §1, §2

T1 sequence (O96017 whole entry, one chain of several): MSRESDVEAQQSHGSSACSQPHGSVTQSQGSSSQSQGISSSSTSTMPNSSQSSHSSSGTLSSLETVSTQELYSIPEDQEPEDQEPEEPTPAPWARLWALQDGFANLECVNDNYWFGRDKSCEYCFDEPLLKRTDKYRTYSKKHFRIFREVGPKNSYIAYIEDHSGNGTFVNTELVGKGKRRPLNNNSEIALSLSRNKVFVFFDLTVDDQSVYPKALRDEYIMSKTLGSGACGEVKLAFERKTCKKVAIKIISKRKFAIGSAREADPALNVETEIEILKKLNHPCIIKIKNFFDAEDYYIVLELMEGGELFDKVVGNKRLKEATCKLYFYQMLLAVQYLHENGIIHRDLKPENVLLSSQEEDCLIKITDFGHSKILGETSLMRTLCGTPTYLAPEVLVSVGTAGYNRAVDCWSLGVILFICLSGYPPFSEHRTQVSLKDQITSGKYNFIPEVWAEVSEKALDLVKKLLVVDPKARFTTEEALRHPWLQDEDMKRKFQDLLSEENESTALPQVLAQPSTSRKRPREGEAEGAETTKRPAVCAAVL

B1: C6M1 (ssRNA)
RNA: GGGAAUGGAUCCACAUCUACGAAUUCGAUCGGUUCCAACGCUCUGUCGCCUAAGUGAACAGAUGAAGAAAAAAUAGCCCAAUAAGAGGCAACAAUCUUUCACUGCAGACUUGACGAAGCUU
modifications: RNA transcript; SEQ:21 is the random region, assayed RNA also carries both library constant regions (reverse complement of the SEQ:22 flanks) [positions count without the 26-nt 5-prime fixed region]
On to B1, for which the Kd came to 180 nM in data set [1] and 299 nM in data set [2].
